# Reference: US20250152742A1, “COMPOSITIONS AND METHODS FOR NEUROLOGICAL DISEASES” (Trames Bio, Inc., priority 2022, published 2025)
# B1: CODA1140: engineered receptor: R101F, L131N, S172D in SEQ ID NO: 33 (protein)
# chain: MRCSPGGVWLALAASLLHVSLQGEFQRKLYKELVKNYNPLERPVANDSQPLTVYFSLSLLQIMDVDEKNQVLTTNIWLQMSWTDHYLQWNVSEYPGVKTVFFPDGQIWKPDILLYNSADERFDATFHTNVNVNSSGHCQYLPPGIFKSSCPMDLKNFPMDVQTCKLKFGSWDYGGWSLDLQMQEADISGYIPNGEWDLVGIPGKRSERFYECCKEPYPDVTFTVTMRRRMGYYLIQMYIPSLLIVILSWISFWINMDAAPARVGLGITTVLTMTTQSSGSRASLPKVSYVKAIDIWMAVCLLFVFSALLEYAAVNFVSRQHKELLRFRRKRRHHKSPMLNLFQEDEAGEGRFNFSAYGMGPACLQAKDGISVKGANNSNTTNPPPAPSKSPEEMRKLFIQRAKKIDKISRIGFPMAFLIFNMFYWIIYKIVRREDVHNQ
# modifications: synthetic sequence of chimeric LGIC
# Legend:
# Assay type in all cases: cell-based
# [1] = test system: engineered chimeric receptor SEQ ID NO: 33 and its mutants (human α7-nAChR ligand binding domain / human GlyRα1 ion pore domain) in Lenti-X 293T cells; experiment: YFP fluorescence quenching anion reporter plate reader assay (percent quench, EC50); settings: for YFP fluorescence quenching using CNL001 (percent quench): receptor named in row; for YFP fluorescence quenching using Varenicline, 3 nM var: ligand Varenicline 3 nM; for YFP fluorescence quenching using Varenicline, 30 nM var: ligand Varenicline 30 nM; for YFP fluorescence quenching using Varenicline, 300 nM var: ligand Varenicline 300 nM; for YFP fluorescence quenching using Varenicline, 500 nM var: ligand Varenicline 500 nM; for YFP fluorescence quenching using Varenicline, 1 uM var: ligand Varenicline 1 uM
# How it was run: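 Percent quench compares mean YFP signal over the final 10 s with the 15 s baseline before ligand, added in iodide-containing extracellular solution (pH 7.2). Cells were LX293T carrying a YFP anion reporter, transiently transfected with the channel construct; plates were preincubated 30 min at 37 °C.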
# [2] = test system: rat hippocampal neurons; experiment: Evoked rheobase shift, rat hippocampal neurons (current clamp)
# Experimental: No holding current was applied to the membrane for cells included in the final datasets. Data acquisition settings and analysis methods were the same as for the DRG rheobase experiments.
# Hippocampal neurons: Hippocampal rheobase experiments were performed in current clamp mode using a potassium-based internal solution containing (in mM): 115 potassium D-gluconate (G4500), 13 potassium chloride (P9333), 1 magnesium chloride hexahydrate (M2670), 5 magnesium ATP (A9187), 10 HEPES (54457), and 0.5 EGTA (3777) (pH=7.2 with potassium hydroxide, osmolarity=290-295 mOsm, calculated liquid junction potential=−14.9 mV. NBQX (10 μM) and AP5 (50 μM) were included in the bath to block excitatory synaptic transmission. To measure HC input resistance and rheobase, 500 ms current steps (−200 pA to 700 pA) were applied the membrane in the presence and absence of a compound. No holding current was applied to the membrane for cells included in the final datasets. Data acquisition settings and analysis methods were the same as for the DRG rheobase experiments.
# [3] = test system: rat hippocampal neurons; experiment: Spontaneous action potential firing rate, hippocampal neurons (current clamp)
# Experimental: Spontaneous activity was recorded in gapfree mode, in the presence and absence of a compound. Data were acquired at 10 kHz, with Bessel filter at 2 kHz and series resistance compensation at 100%. No holding current was applied to the membrane. […] For Clampfit, threshold-based event detection was run separately for each epoch to detect action potentials. For the custom Python code, a peak-finding package was used to automatically detect action potentials (SciPy). For both methods, minimum height, average height, maximum height were measured and frequency was calculated as the number of events in the epoch divided by the length of time of the epoch. For Clampfit, the resting membrane potential was measured at 3 points between events and averaged for each epoch. […] For both methods, membrane potential was corrected for the calculated liquid junction potential. […]
# Hippocampal spontaneous action potential experiments: Hippocampal spontaneous action potentials were recorded in current clamp mode using a potassium-based internal solution containing (in mM): 115 potassium D-gluconate (G4500), 13 potassium chloride (P9333), 1 magnesium chloride hexahydrate (M2670), 5 magnesium ATP (A9187), 10 HEPES (54457), and 0.5 EGTA (3777) (pH=7.2, osmolarity=290-295 mOsm, calculated liquid junction potential=−14.9 mV). Spontaneous activity was recorded in gapfree mode, in the presence and absence of a compound. […]
molecule,measurement,setting,value
B1,YFP fluorescence quenching using CNL001 (percent quench),"[1]; 1 nM CNL001, first column so headed",52.592%
same,YFP fluorescence quenching using CNL001 (percent quench),"[1]; 1 nM CNL001, second column so headed",61.248%
same,YFP fluorescence quenching (percent quench),[1]; 1 nM CNL002,0.337%
same,YFP fluorescence quenching using CNL001 (percent quench),"[1]; 10 nM CNL001, first column so headed",71.678%
same,YFP fluorescence quenching using CNL001 (percent quench),"[1]; 10 nM CNL001, second column so headed",71.881%
same,YFP fluorescence quenching (percent quench),[1]; 10 nM CNL002,59.894%
same,YFP fluorescence quenching using CNL001 (percent quench),"[1]; 50 nM CNL001, first column so headed",73.807%
same,YFP fluorescence quenching using CNL001 (percent quench),"[1]; 50 nM CNL001, second column so headed",75.649%
same,YFP fluorescence quenching (percent quench),[1]; 50 nM CNL002,76.501%
same,YFP fluorescence quenching using ABT-126 (percent quench),[1]; 50 nM abt (ABT-126),−7.87%
same,YFP fluorescence quenching using CNL001 (percent quench),"[1]; 100 nM CNL001, first column so headed",76%
same,YFP fluorescence quenching using CNL001 (percent quench),"[1]; 100 nM CNL001, second column so headed",76.329%
same,YFP fluorescence quenching (percent quench),[1]; 100 nM CNL002,79.03%
same,YFP fluorescence quenching using ABT-126 (percent quench),[1]; 100 nM abt (ABT-126),−5.35%
same,YFP fluorescence quenching using ABT-126 (percent quench),[1]; 300 nM abt (ABT-126),−3.67%
same,YFP fluorescence quenching using CNL001 (percent quench),"[1]; 1 uM CNL001, first column so headed",76.168%
same,YFP fluorescence quenching using CNL001 (percent quench),"[1]; 1 uM CNL001, second column so headed",74.076%
same,YFP fluorescence quenching (percent quench),[1]; 1 uM CNL002,82.85%
same,YFP fluorescence quenching using ABT-126 (percent quench),[1]; 1 uM abt (ABT-126),3.64%
same,YFP fluorescence quenching using ABT-126 (percent quench),[1]; 10 uM abt (ABT-126),5.91%
same,YFP fluorescence quenching (percent quench),[1]; 10 uM ach (acetylcholine),−20.07%
same,YFP fluorescence quenching (percent quench),[1]; 30 uM ach (acetylcholine),−16.92%
same,YFP fluorescence quenching (percent quench),[1]; 100 uM ach (acetylcholine),−25.8%
same,YFP fluorescence quenching (percent quench),[1]; 300 uM ach (acetylcholine),−11.21%
same,YFP fluorescence quenching (percent quench),[1]; 1 mM ach (acetylcholine),9.02%
same,YFP fluorescence quenching (percent quench),[1]; 3 mM ach (acetylcholine),45%
same,"YFP fluorescence quenching using Varenicline, 3 nM var",[1]; first column,−6.169
same,"YFP fluorescence quenching using Varenicline, 3 nM var",[1]; second column,−10.445
same,"YFP fluorescence quenching using Varenicline, 30 nM var",[1]; first column,−9.679
same,"YFP fluorescence quenching using Varenicline, 30 nM var",[1]; second column,−10.878
same,"YFP fluorescence quenching using Varenicline, 300 nM var",[1]; first column,−9.572
same,"YFP fluorescence quenching using Varenicline, 300 nM var",[1]; second column,−8.873
same,"YFP fluorescence quenching using Varenicline, 500 nM var",[1]; first column,−14.656
same,"YFP fluorescence quenching using Varenicline, 500 nM var",[1]; second column,−11.304
same,"YFP fluorescence quenching using Varenicline, 1 uM var",[1]; first column,−13.996
same,"YFP fluorescence quenching using Varenicline, 1 uM var",[1]; second column,−16.128
same,"Rheobase Shift Evoked; Rat Hippocampal Neurons, Baseline","[2]; baseline, no ligand",40.63 ± 10.50 pA
same,"Rheobase Shift Evoked; Rat Hippocampal Neurons, +CNL002 @ EC90",[2]; ligand CNL002 at EC90,296.9 ± 72.65 pA
same,"Firing Rate Spontaneous; Rat Hippocampal Neurons, Baseline","[3]; baseline, no ligand",3.29 ± 0.75 Hz
same,"Firing Rate Spontaneous; Rat Hippocampal Neurons, +CNL002 @ EC90",[3]; ligand CNL002 at EC90,0.71 ± 0.29 Hz
